Experimental data reported in patent US20120316071A1 (published 2012).
Substitutions are numbered along the chain they refer to. Names and notes keep the numbering of the source.

B1: Fab VH5-51_IGHD5-18*01>3_IGHJ4*01 G100K/G104T & V3-4_IGLJ1*01 (Fab, V domains shown)
VH: EVQLVQSGAEVKKPGESLKISCKGSGYSFTSYWIGWVRQMPGKGLEWMGIIYPGDSDTRYSPSFQGQVTISADKSISTAYLQWSSLKASDTAMYYCARRKYSYTYDYFDYWGQGTLVTVSS
VL: QTVVTQEPSFSVSPGGTVTLTCGLSSGSVSTSYYPSWYQQTPGQAPRTLIYSTNTRSSGVPDRFSGSILGNKAALTITGAQADDESDYYCVLYMGSGISYVFGTGTKVTVL
notes: Fab; expressed with CH1 (His and Flag tags) and lambda CL from the expression plasmids; also called H:KT & L:wt; KT double mutant
B2: Fab VH5-51_IGHD5-18*01>3_IGHJ4*01 G100K/G104T & V3-4_IGLJ1*01 M94D (Fab, V domains shown)
VH: B1 VH
VL: B1 VL with M94D
notes: Fab; expressed with CH1 (His and Flag tags) and lambda CL from the expression plasmids; also called H:KT & M94D
B3: Fab VH5-51_IGHD5-18*01>3_IGHJ4*01 G100K/G104T & V3-4_IGLJ1*01 M94E (Fab, V domains shown)
VH: B1 VH
VL: B1 VL with M94E
notes: Fab; expressed with CH1 (His and Flag tags) and lambda CL from the expression plasmids; also called H:KT & M94E
B4: Fab VH5-51_IGHD5-18*01>3_IGHJ4*01 G100K/G104T & V3-4_IGLJ1*01 M94F (Fab, V domains shown)
VH: B1 VH
VL: B1 VL with M94F
notes: Fab; expressed with CH1 (His and Flag tags) and lambda CL from the expression plasmids; also called H:KT & M94F
B5: Fab VH5-51_IGHD5-18*01>3_IGHJ4*01 G100K/G104T & V3-4_IGLJ1*01 M94G (Fab, V domains shown)
VH: B1 VH
VL: B1 VL with M94G
notes: Fab; expressed with CH1 (His and Flag tags) and lambda CL from the expression plasmids; also called H:KT & M94G
B6: Fab VH5-51_IGHD5-18*01>3_IGHJ4*01 G100K/G104T & V3-4_IGLJ1*01 M94L (Fab, V domains shown)
VH: B1 VH
VL: B1 VL with M94L
notes: Fab; expressed with CH1 (His and Flag tags) and lambda CL from the expression plasmids; also called H:KT & M94L
B7: Fab VH5-51_IGHD5-18*01>3_IGHJ4*01 G100K/G104T & V3-4_IGLJ1*01 M94N (Fab, V domains shown)
VH: B1 VH
VL: B1 VL with M94N
notes: Fab; expressed with CH1 (His and Flag tags) and lambda CL from the expression plasmids; also called H:KT & M94N
B8: Fab VH5-51_IGHD5-18*01>3_IGHJ4*01 G100K/G104T & V3-4_IGLJ1*01 M94P (Fab, V domains shown)
VH: B1 VH
VL: B1 VL with M94P
notes: Fab; expressed with CH1 (His and Flag tags) and lambda CL from the expression plasmids; also called H:KT & M94P
B9: Fab VH5-51_IGHD5-18*01>3_IGHJ4*01 G100K/G104T & V3-4_IGLJ1*01 M94R (Fab, V domains shown)
VH: B1 VH
VL: B1 VL with M94R
notes: Fab; expressed with CH1 (His and Flag tags) and lambda CL from the expression plasmids; also called H:KT & M94R
B10: Fab VH5-51_IGHD5-18*01>3_IGHJ4*01 G100K/G104T & V3-4_IGLJ1*01 M94S (Fab, V domains shown)
VH: B1 VH
VL: B1 VL with M94S
notes: Fab; expressed with CH1 (His and Flag tags) and lambda CL from the expression plasmids; also called H:KT & M94S
B11: Fab VH5-51_IGHD5-18*01>3_IGHJ4*01 G100K/G104T & V3-4_IGLJ1*01 M94T (Fab, V domains shown)
VH: B1 VH
VL: B1 VL with M94T
notes: Fab; expressed with CH1 (His and Flag tags) and lambda CL from the expression plasmids; also called H:KT & M94T
B12: Fab VH5-51_IGHD5-18*01>3_IGHJ4*01 G100K/G104T & V3-4_IGLJ1*01 M94V (Fab, V domains shown)
VH: B1 VH
VL: B1 VL with M94V
notes: Fab; expressed with CH1 (His and Flag tags) and lambda CL from the expression plasmids; also called H:KT & M94V
B13: Fab VH5-51_IGHD5-18*01>3_IGHJ4*01 G100K/G104T & V3-4_IGLJ1*01 S96G (Fab, V domains shown)
VH: B1 VH
VL: B1 VL with S96G
notes: Fab; expressed with CH1 (His and Flag tags) and lambda CL from the expression plasmids; also called H:KT & S96G
B14: Fab VH5-51_IGHD5-18*01>3_IGHJ4*01 G100K/G104T & V3-4_IGLJ1*01 S96W (Fab, V domains shown)
VH: B1 VH
VL: B1 VL with S96W
notes: Fab; expressed with CH1 (His and Flag tags) and lambda CL from the expression plasmids; also called H:KT & S96W
B15: Fab VH5-51_IGHD5-18*01>3_IGHJ4*01 G100K/G104T & V3-4_IGLJ1*01 V91C (Fab, V domains shown)
VH: B1 VH
VL: B1 VL with V91C
notes: Fab; expressed with CH1 (His and Flag tags) and lambda CL from the expression plasmids; also called H:KT & V91C
B16: Fab VH5-51_IGHD5-18*01>3_IGHJ4*01 G100K/G104T & V3-4_IGLJ1*01 V91E (Fab, V domains shown)
VH: B1 VH
VL: B1 VL with V91E
notes: Fab; expressed with CH1 (His and Flag tags) and lambda CL from the expression plasmids; also called H:KT & V91E
B17: Fab VH5-51_IGHD5-18*01>3_IGHJ4*01 G100K/G104T & V3-4_IGLJ1*01 V91G (Fab, V domains shown)
VH: B1 VH
VL: B1 VL with V91G
notes: Fab; expressed with CH1 (His and Flag tags) and lambda CL from the expression plasmids; also called H:KT & V91G
B18: Fab VH5-51_IGHD5-18*01>3_IGHJ4*01 G100K/G104T & V3-4_IGLJ1*01 V91H (Fab, V domains shown)
VH: B1 VH
VL: B1 VL with V91H
notes: Fab; expressed with CH1 (His and Flag tags) and lambda CL from the expression plasmids; also called H:KT & V91H

target: T1, Recombinant Human DLL4 (delta-like protein 4) (human, UniProt Q9NR61 27-524); test: ECL (MSD) binding assay, immobilised DLL4, 10 nM Fab;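 further: fab binding read as electrochemiluminescence via a TAG-labelled detection antibody, 1 h incubations at 20 °C, antigen signal compared with each well's blank, ratio of at least 4 scored as binder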
T1 construct: Bought recombinant human DLL4 (R&D Systems Cat#1506-D4/CF); also called rHuman DLL4

Question: How did the “ECL Signal [10 nM Fab]” value turn out when B1 was run?
Answer: The value was 42900.

Question: With B2 as the binder, how does the “ECL Signal [10 nM Fab]” value read?
Answer: Its value is 52700.

Question: B3 was tested. Which “ECL Signal [10 nM Fab]” value did it give?
Answer: The value was 32500.

Question: For B4, which “ECL Signal [10 nM Fab]” value is on record?
Answer: The value was 26300.

Question: With B5 as the binder, how does the “ECL Signal [10 nM Fab]” value read?
Answer: The value was 20300.

Question: B6 was tested. Which “ECL Signal [10 nM Fab]” value did it give?
Answer: Its value is 46800.

Question: For B7, which “ECL Signal [10 nM Fab]” value is on record?
Answer: The value was 51300.

Question: Which “ECL Signal [10 nM Fab]” value does the source give for B8 here?
Answer: Its value is 39900.

Question: With B9 as the binder, how does the “ECL Signal [10 nM Fab]” value read?
Answer: Its value is 77800.

Question: B10 was tested. Which “ECL Signal [10 nM Fab]” value did it give?
Answer: The value was 49600.

Question: For B11, which “ECL Signal [10 nM Fab]” value is on record?
Answer: The value was 43000.

Question: For B12, which “ECL Signal [10 nM Fab]” value is on record?
Answer: The value was 47300.

Question: B13 was tested. Which “ECL Signal [10 nM Fab]” value did it give?
Answer: The value was 40400.

Question: B14 was tested. Which “ECL Signal [10 nM Fab]” value did it give?
Answer: The value was 52300.

Question: B15 was tested. Which “ECL Signal [10 nM Fab]” value did it give?
Answer: Its value is 38300.

Question: With B16 as the binder, how does the “ECL Signal [10 nM Fab]” value read?
Answer: The value was 22500.

Question: Which “ECL Signal [10 nM Fab]” value does the source give for B17 here?
Answer: The value was 45300.

Question: B18 was tested. Which “ECL Signal [10 nM Fab]” value did it give?
Answer: The value was 27100.

target: T1, Recombinant Human DLL4 (delta-like …); test: ELISA, DLL4-coated plate, 100 nM Fab

Question: How did the “ELISA Signal [100 nM Fab]” value turn out when B1 was run?
Answer: Its value is 0.01.

Question: For B2, which “ELISA Signal [100 nM Fab]” value is on record?
Answer: The value was 0.01.

Question: B3 was tested. Which “ELISA Signal [100 nM Fab]” value did it give?
Answer: Its value is 0.01.

Question: For B4, which “ELISA Signal [100 nM Fab]” value is on record?
Answer: Its value is 0.01.

Question: B5 was tested. Which “ELISA Signal [100 nM Fab]” value did it give?
Answer: Its value is 0.01.

Question: With B6 as the binder, how does the “ELISA Signal [100 nM Fab]” value read?
Answer: Its value is 0.02.

Question: Which “ELISA Signal [100 nM Fab]” value does the source give for B7 here?
Answer: The value was 0.01.

Question: B8 was tested. Which “ELISA Signal [100 nM Fab]” value did it give?
Answer: The value was 0.01.

Question: For B9, which “ELISA Signal [100 nM Fab]” value is on record?
Answer: The value was 0.01.

Question: For B10, which “ELISA Signal [100 nM Fab]” value is on record?
Answer: Its value is 0.02.

Question: How did the “ELISA Signal [100 nM Fab]” value turn out when B11 was run?
Answer: Its value is 0.02.

Question: Which “ELISA Signal [100 nM Fab]” value does the source give for B12 here?
Answer: Its value is 0.02.

Question: B13 was tested. Which “ELISA Signal [100 nM Fab]” value did it give?
Answer: Its value is 0.01.

Question: For B14, which “ELISA Signal [100 nM Fab]” value is on record?
Answer: The value was 0.02.

Question: How did the “ELISA Signal [100 nM Fab]” value turn out when B15 was run?
Answer: The value was 0.02.

Question: Which “ELISA Signal [100 nM Fab]” value does the source give for B16 here?
Answer: Its value is 0.

Question: For B17, which “ELISA Signal [100 nM Fab]” value is on record?
Answer: Its value is 0.01.

Question: B18 was tested. Which “ELISA Signal [100 nM Fab]” value did it give?
Answer: Its value is 0.01.
